# From the nanobody polyreactivity screen of Harvey et al. (2022)
# Experiment: yeast display, Sf9 membrane polyspecificity reagent, FACS + sequencing; frameworks hold sequencing errors
# Summary of the method: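 Using colony PCR, genes from sorted yeast display clones were amplified, then sequenced on MiSeq at 2 × 250 and filtered by CDR length. The clones had been stained with 10% biotinylated, detergent-solubilized Sf9 membrane reagent for 1 hour at 4 °C and sorted by FACS into low and high (top ~1%) gates on anti-HA and streptavidin fluorescence. Polyreactivity labels come from the gate of origin.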
row,Sequence,polyreactivity (PSR sort gate)
1,QVQLVQSGGGLVQAGGSLRLSCAASGFTFIRYAMGWYRQAPGKERELVAAIRGTGTSTYYADSVKGRFTISRDIAKNTVYLQMNSLKPEDTAVYYCNAGTYYRSYGYDYWGQGTQVTVSS,low polyreactivity
2,QVQLVQSGGGLVQAGGSLRLSCAASGRIFRTYAMGWYRQAPGKERELVAAISSRSGSTYYADSVKGRFTISRDNAKNTVYLQMQSLKPEDTAVYYCASRYGYRYADKGSEYGYWGQGTLVTVSS,high polyreactivity
3,QVQLVQSGGGLVQAGGSLRLSCAASGSIFTPNAMGWYRQAPGKERELVAAISGRTGTTYYADSVKGRFTISRDNAKNTVYLQMHSLKPEDTAVYYCAKSSGRYRSDYRGQGTQVTVSS,high polyreactivity
4,QVQLVQSGGGLVQAGGSLRLSCAASGSTFARNAMGWYRQAPGKERELVAAISSSGGRTYYADSVKGRFTISRDHAKNSVYLQMNSLKPEYTEVYYCAAAFSLGMYWGQGTQGTVSS,high polyreactivity
5,QVQLVQSGGGLVQAGGSLRLSCAASGSTFPTNAMGWYRQAPGKERELVAAITSTGSTYADSVKGRFTISRDNAKNTVYLQMNSLKPEDTAVYYCAADTQWTTPYDYWGQGTQVTVSS,low polyreactivity
6,QVQLVQSGGGLVQAGGSLRLSCAASGSTFRRKVMGWYRQAPGKETELVAAISWSGTSTNYADSEKGRFTISRDNAKNTVYLQMNSVKPEDTAVYYCATQSLYYRWGLDYWGQGTEVTVSS,high polyreactivity
7,QVQLVQSGGGLVQAGGSLRLSCAASGSTFTPNDMGWYRQAPGKERELVAAIDWSGGSTYYADSVKGRFTISRDNAKNTVYLQMNSLKPEDTAVYYYNADSSKFYSHGEYEYWGQGTQVTVSS,low polyreactivity
8,QVQLVQSGGGLVQAGGSLRLSCAASGSTIVTNAMGWYRQAPGKERELVAANTSVGSTYYADSVKGRFTISRDNAKNTVYLQMNSLKPEDTAVYYCNVVYRDQYNYWGQGTQVTVSS,low polyreactivity
9,QVQLVQSGGGLVQAGGSLRLSCAASGTTFNRNAMGWYRQAPGKEMELVDTITSAGSTYYADSVKGRFTISLDNAKNTVYLHMNSLKPEDTAVYYCAKGHQPGHVFHQEYGYYYWGQGTQGTVSS,low polyreactivity
10,QVQLVQSGGGLVQAGGSLRLSCADSGSIFEYYTMGWYRQAPGKERELVAAISDGGSTYYADSVKGRFTISRDNAKNTVYLQMYSLKPEDTAVYYCAAEYQQDFWVAVDYWGQGTQVSVSS,low polyreactivity
11,QVQLVQSGGGLVQAGGSLRLSCAGSGYILQINAMGWYRQAPGKERELVAAISISGGNTYYADSVKGRFTNSRDNAKNTVYLQMNSLKPEDSAVYYCAAYRFYSYLVRYGLLLAYYYWGQGTQVTVSS,low polyreactivity
12,QVQLVQSGGGLVQAGGSLRLTCAASGRTFVVYAMGWYRQAPGKERQLVASISSIGEITNYADSVKGRFTISRDYAKNTVYLQMNSLKQEDTAVYYCTAPICGSYNTRRAAEYDYWGQGTQVTVSS,low polyreactivity
13,QVQLVQSGGGLVQAVGSLRLICADSGSIFVPNAMGWYRQALGKERELVAAITYSGVDTYYADSVKGRFTISRDNAKNSVYLQMNSLKPEDTAVYYCAADNGRVGYDYWGLGTQVTVSS,low polyreactivity
14,QVQLVQSGGGLVQAVGSLRLSCAASGRTFPYYTMGWYRQARGKERELVAAINSSGGRTYYADSVKGRFTISRDNAKNTVYLQMNSLKPEDTAVYYCAKRGYYKYDWGQGTQVTVSS,high polyreactivity
15,QVQLVQSVVGLVQAGRRLRLSSAASGRIFFYNAMGWYRHAPGKERELVAGISRSGTSTYYADSVKGRFTISRDNAKNTVYLHMNSLKPEDTAVYYCAAGTFYYWLSYDYWGQGTQVTVSS,low polyreactivity
16,QVQLVQTGGGLVQAGGSLRLSCAASGSTFWYNAMGWSRQAPGKERELVARISYSGGSTYYADSVKGRFTISRDNAKNTVYLQMNCLKPEDTAVEYCAGRRPYKYDYWGQGTQVTVSS,high polyreactivity

row,Sequence,polyreactivity (PSR sort gate)
1,QVQLVVSGGGLDQARGSLRLSCAASGSNFFYYAMGWYRQAPWKERELVAGINWSGGSTYADSVKGRFTISRDNAKNTVYLQMNSLKPEDTAVYYCAAKFYSERSSYHYWGQGTQVTVSS,low polyreactivity
2,QVQLVVSGGGLVQAGGRLRLSCAASGFTFRRNARGWYRQAPGKVWELVAGITSSGTSTYYADSVKGRFTISRDNAKNTVNLQMNSLKPEDTAVYYCNADTPRTGGYWGQGTQVTVSS,high polyreactivity
3,QVQLVVSGGGLVQAGGRLRLSCAATGSTFSVNAMGWSRQAPGKERELVAAITRSGGSTYYADSVKGRFTFSRDNAKNSVYLQLNSLKPEDTAVYYCAAEIYPLGEYWGQGTQVTVSS,low polyreactivity
4,QVQLVVSGGGLVQAGGSLRLSCAASGGTFQHNTMGWYRQAPGKERELVAAIRWSDGSTYYADSVKGRFTISRDNAKTTVYLQMNSLKPEDTSVYYCNRAYTASYIPRVGFWGQGTQVTVSS,high polyreactivity
5,QVQLVVSGGGLVQAGGSLRLSCAASGRIFRAYAMGWYRQAPGQERELVADITSGSGSTYYADSVKGRFTISRDNAKNTVYLQMNSLKPEDTAVYYCAADVFIRDWEYYYWGQGTQVTVSS,low polyreactivity
6,QVQLVVSGGGLVQAGGSLRLSCAASGRIFVYNAMGWYRQAPGKERELVATITSGGSTYYADSVKGRFTISRDNAKNTVYLQMNSLKPEDTAVYYCAARRWYVHYFAYGYWGQGTQVTVSS,low polyreactivity
7,QVQLVVSGGGLVQAGGSLRLSCAASGRTFPRYAMGWYRQAPGKERELVASISRRGGSTYYADSVKGRFTISRDNAKNTVYLQMNSLKPEDTAVYYCNAQGYPYKQSTGDFWGQGTQVTVSS,high polyreactivity
8,QVQLVVSGGGLVQAGGSLRLSCAASGSIFLVNVMGGDRQAPGKERELVAAITWSGGRTYYADSVKGRFTISRDNAKNTVYLPRNSRLPEDTAVYYCAAQTPRFVWQKGPLDSEDYWGQGTQVTVSS,high polyreactivity
9,QVQLVVSGGGLVQAGGSLRLSCAASGSLFTPYAMGWYRQAPGKERELVATISWSGGRTYYADSVKGRFTISRDNAKNPVYLQMNSLKPEDTAVYYCAARGYSSEYDYWGQGTQVTVSS,high polyreactivity
10,QVQLVVSGGGLVQAGGSLRLSCAASGSTFVSNAMGWYRQAPGQERELVAAITSGGSTDYADSVKGRCTISRDNAKNTVYVQMNSLQPEDTAVYYGAADPEWHSDQPRVGYVGYNYWGQGTQVNVSS,low polyreactivity
11,QVQLVVSGGGLVQAGGSLRLSCAASGYIFDYNAMGWYIQSPGKERELVAAINWSGGSTYYADSVKGRFTISRDNAKNTVYLQMNSLKPEDTAVYYCNKLIYGIYYPERYAYDYWGQGTQVTVSS,low polyreactivity
12,QVQLVVSGGGLVQAGGSLRLSCAASGYIFYANAMGWYRQAPGKEWELVAAITQSGGRTYYADSVKGRFTISRDNAKNTVYLQMNSLKPEDTAVYYCAAQPWRALGYYYWGQGTQVTVSS,high polyreactivity
13,QVQLVYSGGGLVQAGGSLRLSCAASGRTFARYAMGWYIQAPWKERELVAAITRSGGSTTYADSVKGLFTISRDNAKNTVYVQLYSLKPVYTAVYFCASSTSLRLDYWGQGTQVTVSS,high polyreactivity
14,QVQMQESGGGLEQAGGSLRLSCAASGNISGFGYMGWYRQAPGKEREFVAAISYGTSTYYADSVKGLFTISRDNAKNTVYLQINSLKPEDTAVFYCAALCLISKHHHYWGEGTQVTVSS,high polyreactivity
15,QVQNVESGGGLVQARGSLRLSCAASGRTFTESDMGRYRQAPGKERELVAAITSVGSTYYADSVKGRFTISRYNAKNTVYLQMNSLKPEDTAVYYCAAEWQNTNMDYWGQGTQVTVSS,low polyreactivity
16,QVQPQERGGGPVQACGSLRLSCAARGNILDADILGWYRLVPGKEGELVASITDGGSTNYAESVKGRFTLSRDNAINTVYHHMNSLKPEDTAVYYCAANARSHAEHDYWGQGTQVTVSS,low polyreactivity
